This is an account of results in patent US20120316071A1 (published 2012).

The target of assay [1] is T1, rHuman IGF-1 sR, CF (R&D Systems Cat#391-GR) (human, UniProt P08069 31-932).
T1 construct: Bought soluble receptor; also called insulin-like growth factor-1 soluble receptor
As to the kind of experiment: ECL (MSD) multispot binding assay, antigen spotted on plate, 20 nM Fab.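 Also: purified Fab incubated 1 h at 20 °C on antigen-spotted plate, bound Fab revealed with TAG detection antibody, ECL read, antigen signal divided by same-well blank, ratio ≥4 counted as hit.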

Assay [2] concerns the target T2, rHuman EGF R/Fc Chimera, CF (R&D Systems Cat#344-ER) (human, UniProt P00533 25-645).
T2 construct: Bought reagent; also called epidermal growth factor receptor; Fc part of the bought chimera not given
The description is as above.

In assay [3] the target is T3, rHuman ErbB2/Fc Chimera, CF (R&D Systems Cat#1129-ER) (human, UniProt P04626 23-652).
T3 construct: Bought reagent; also called human epidermal growth factor 2 receptor; Fc part of the bought chimera not given
The assay is described as above.

Assay [4] has as its target T4, rHuman CD44/Fc Chimera, CF (R&D Systems Cat#3660-CD) (human, UniProt P16070 21-220).
T4 construct: Bought reagent; Fc part of the bought chimera not given
The description is as above.

Assay [5] concerns the target T5, Recombinant Human DLL4 (R&D Systems Cat#1506-D4/CF) (human, UniProt Q9NR61 27-524).
T5 construct: Bought recombinant protein; also called delta-like protein 4; rHuman DLL4
Described as above.

Assay [6] addresses T6, rHuman Erythropoietin R/Fc Chimera, CF (R&D Systems Cat#963-ER) (human, UniProt P19235 25-250).
T6 construct: Bought reagent; also called EPO R; EPO R/Fc; Fc part of the bought chimera not given
T6 sequence (looked up): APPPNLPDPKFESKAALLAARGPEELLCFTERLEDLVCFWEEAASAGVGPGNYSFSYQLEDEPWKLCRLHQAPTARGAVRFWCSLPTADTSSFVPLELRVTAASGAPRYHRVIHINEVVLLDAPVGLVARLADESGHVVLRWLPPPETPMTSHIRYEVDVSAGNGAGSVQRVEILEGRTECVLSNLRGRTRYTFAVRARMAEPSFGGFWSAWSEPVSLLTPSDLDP
Described as above.

Assay [7] addresses T7, rHuman P-Cadherin/Fc Chimera, CF (R&D Systems Cat#861-PC) (human, UniProt P22223 108-654).
T7 construct: Bought reagent; Fc part of the bought chimera not given
Described as above.

The target in assay [8] is T8, rHuman Notch-1/Fc Chimera, CF (R&D Systems Cat#3647-TK) (human, UniProt P46531 19-526).
T8 construct: Bought reagent; Fc part of the bought chimera not given
The description is as above.

For assay [9], the target named is T9, Recombinant Human DLL4 (R&D Systems Cat#1506-D4/CF) (human, UniProt Q9NR61 27-529).
T9 construct: Bought recombinant protein; also called rHuman DLL4; delta-like protein 4
The assay is described as follows: 96-well plate ECL (MSD) assay, DLL4 coated on plate, Fab at 0.04 µM; ECL signal on DLL4 over signal on blank well.

Where a chain is given by its changes, count along the chain named. Names may count otherwise.

B1: Fab VH3-23_IGHD2-21*01>3_IGHJ6*01 H100E/S108P/Y113G Y114E & V2-13_IGLJ2*01 (Fab, V domains shown)
VH: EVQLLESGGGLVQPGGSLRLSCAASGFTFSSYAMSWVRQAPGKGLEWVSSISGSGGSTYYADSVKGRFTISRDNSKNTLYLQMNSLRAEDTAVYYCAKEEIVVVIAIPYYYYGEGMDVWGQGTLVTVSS
VL: SSELTQDPAVSVALGQTVRITCQGDSLRSYYASWYQQKPGQAPVLVIYGKNNRPSGIPDRFSGSSSGNTASLTITGAQAEDEADYYCNSRDSSGNHLVVFGGGTKLTVL
notes: Tested as Fab made in E. coli (VH-CH1 with His and Flag tags; lambda CL); also called EPG Y114E
Regarding B1, the “ECL multispot value” in assay [1] worked out at 1.5; in [2], 6.8; in assay [3], 7.4; in assay [4] it was 1.5; in assay [5], 2.2; in [6], 69.2. Moreover, the “ECL multispot value” in assay [7] stood at 13.9.

B2: Fab VH3-23_IGHD2-21*01>3_IGHJ6*01 H100E/S108P/Y113G Y114W & V2-13_IGLJ2*01 (Fab, V domains shown)
VH: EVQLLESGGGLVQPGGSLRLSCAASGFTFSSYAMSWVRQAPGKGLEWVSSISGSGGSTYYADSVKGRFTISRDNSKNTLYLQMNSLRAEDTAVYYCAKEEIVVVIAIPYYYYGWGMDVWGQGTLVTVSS
VL: B1 VL
notes: Tested as Fab made in E. coli (VH-CH1 with His and Flag tags; lambda CL); also called EPG Y114W
As for B2, the “ECL multispot value” in assay [1] came to 1.1; in [2], 6.6; in [3], 9.3; in assay [4] it was 1.6; in [5] it was 1.9; in assay [8], 2.2. In assay [7], the “ECL multispot value” came out at 16.7.

B3: Fab VH3-23_IGHD2-21*01>3_IGHJ6*01 H100E/S108P/Y113G Y114S & V2-13_IGLJ2*01 (Fab, V domains shown)
VH: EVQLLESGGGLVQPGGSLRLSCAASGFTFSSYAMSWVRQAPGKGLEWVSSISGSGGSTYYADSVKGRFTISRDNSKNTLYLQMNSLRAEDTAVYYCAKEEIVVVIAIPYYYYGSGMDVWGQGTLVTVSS
VL: B1 VL
notes: Tested as Fab made in E. coli (VH-CH1 with His and Flag tags; lambda CL); also called EPG Y114S
Take B3: the “ECL multispot value” was 1.3 in [1]; 5 in assay [2]; 8.7 in assay [3]; 1.4 in [4]; 2.2 in assay [5]; 68.5 in [6]. Also, the figures for the “ECL multispot value” in assay [8] and in assay [7] were 2.9 and 15.8, respectively.

B4: Fab VH1-46_IGHD6-6*01_IGHJ1*01 E100A & L6_IGKJ1*01 (Fab, V domains shown)
VH: QVQLVQSGAEVKKPGASVKVSCKASGYTFTSYYMHWVRQAPGQGLEWMGIINPSGGSTSYAQKFQGRVTMTRDTSTSTVYMELSSLRSEDTAVYYCAREAYSSSSAEYFQHWGQGTLVTVSS
VL: not shown
notes: Heavy chain CDR3 alanine mutant of the parental Fab; Fab format as the parent (CH1 with His6/Flag tags, kappa CL)
B4: the Signal/Noise in [9] was 0.9.

B5: Fab VH1-46_IGHD6-6*01_IGHJ1*01 S104A & L6_IGKJ1*01 (Fab, V domains shown)
VH: B4 VH with A100E, S104A
VL: not shown
notes: as for B4
Regarding B5, in assay [9], the Signal/Noise came to 1.3.

B6: Fab VH1-46_IGHD6-6*01_IGHJ1*01 S102A & L6_IGKJ1*01 (Fab, V domains shown)
VH: B4 VH with A100E, S102A
VL: not shown
notes: as for B4
Turning to B6, in assay [9], the Signal/Noise was determined as 5.6.

B7: Fab VH1-46_IGHD6-6*01_IGHJ1*01 H111A & L6_IGKJ1*01 (Fab, V domains shown)
VH: B4 VH with A100E, H111A
VL: not shown
notes: as for B4
For B7, in [9], the Signal/Noise was 2.4.

B8: Fab VH1-46_IGHD6-6*01_IGHJ1*01 S103A & L6_IGKJ1*01 (Fab, V domains shown)
VH: B4 VH with A100E, S103A
VL: not shown
notes: as for B4
As to B8, in [9], the Signal/Noise was determined as 3.5.
